Conditions in all cases: both partners purified
The target of experiment [1] is T1, rhodamine-labeled Mdm2^216–302 (human, UniProt Q00987-11 216-302, rhodamine label (site not stated)).
T1 construct: as m32 with the label; source: purified, rhodaminated in vitro
Description: fluorescence polarisation; 50 nM rhodaminated Mdm2 216–302 with increasing concentrations of the ligand; 10 mM Tris-HCl pH 7.5, 0.15 M NaCl, 0.5 mM EDTA, 1 mM DTT.

Experiment [2] deals with T2, Numb-PTBi (Numb^20–175), purified (human, UniProt P49757 20-175).
T2 construct: For NMR the protein was isotope-labelled; source: E. coli BL21 Rosetta pLysS, purified (NTA beads, Superdex-200)
T2 sequence (looked up): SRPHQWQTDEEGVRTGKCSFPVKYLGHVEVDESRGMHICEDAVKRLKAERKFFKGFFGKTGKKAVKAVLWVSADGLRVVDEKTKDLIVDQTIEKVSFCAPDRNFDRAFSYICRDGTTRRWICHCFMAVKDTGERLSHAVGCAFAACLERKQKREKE
Description: pull-down; GST-Mdm2 fragments (1 µM) on GSH beads, purified Numb fragments (5 µM in Fig. 1 F; 2 and 4 µM or 1 and 2 µM in Fig. 6), 2 h at 4 °C, 10 mM Hepes pH 7.5, 0.15 M NaCl, 5% glycerol, 0.1% Tween-20; Coomassie staining.

Experiment [3] deals with T3, Numb PTBi (Numb^20–175), His fusion (human, UniProt P49757 20-175).
T3 construct: source: bacterially expressed as His fusion, purified
T3 sequence (looked up): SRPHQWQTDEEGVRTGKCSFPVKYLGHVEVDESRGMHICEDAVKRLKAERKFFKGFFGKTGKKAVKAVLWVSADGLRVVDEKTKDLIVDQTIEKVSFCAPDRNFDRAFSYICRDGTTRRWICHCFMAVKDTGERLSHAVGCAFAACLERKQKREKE
Described as above.

Experiment [4] deals with T2, Numb-PTBi (Numb^20–175), purified. Put plainly: crystal structure; Numb-PTBi with a 1.3 molar excess of GPpY peptide; hanging drops at 20 °C, 25% PEG 3350, 0.2 M lithium sulfate, 0.1 M Bis-Tris pH 6; space groups F222 and P212121.

Non-standard residues stand in square brackets, D forms with d. No end group written: not given here. pY = N[C@@H](Cc1ccc(OP(=O)(O)O)cc1)C(=O)O

T1 sequence (Q00987 210-296): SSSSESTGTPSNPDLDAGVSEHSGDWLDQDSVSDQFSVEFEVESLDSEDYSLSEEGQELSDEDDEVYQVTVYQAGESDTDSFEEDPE

B1: Numb-PTBo, purified (domain or fragment)
chain: SRPHQWQTDEEGVRTGKCSFPVKYLGHVEVDESRGMHICEDAVKRLKATGKKAVKAVLWVSADGLRVVDEKTKDLIVDQTIEKVSFCAPDRNFDRAFSYICRDGTTRRWICHCFMAVKDTGERLSHAVGCAFAACLERKQKREKE
On to B1, for which the “fold reduction of binding affinity against PTBi” value in experiment [1] is ~30 fold.

B2: GST-Mdm2^250–290 (domain or fragment, human, UniProt Q00987-11 250-290, looked up)
chain: QFSVEFEVESLDSEDYSLSEEGQELSDEDDEVYQVTVYQAG
notes: Mdm2 residues 250–290, a short stretch of the acidic domain; also called minimal Mdm2 fragment; source: E. coli BL21 Rosetta, purified (Glutathione Sepharose)
On to B2, for which the binding result in experiment [2] and in experiment [3] was “binds” in each case.

B3: GPpY phosphopeptide (AYIGPpYL) (peptide)
peptide: AYIGP[pY]L
notes: also called GPpY peptide; source: synthetic peptide (United Biosystems)
As for B3, the binding result in experiment [4] was “binds”.

The record behind these values is paper PMC5800818, “A Numb–Mdm2 fuzzy complex reveals an isoform-specific involvement of Numb in breast cancer” (The Journal of Cell Biology, 2018).
